# Data as given in the supplement of paper PMC12042874.
# ± gives the uncertainty stated by the source.
# Test: amyloid nucleation score (Sup35N fusion, yeast selection) (log enrichment); library NNK1; higher = more nucleation; inactive = no reads after selection
# How it was run: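 Yeast lacking psi expressed peptides of 20 random codons fused to Sup35N, received 100 μM copper sulfate for 24 hours, and were then grown for 7 days at 30°C on medium lacking adenine and uracil. Illumina sequencing of input and output plasmid inserts provided the reads. Nucleation scores are DiMSum log enrichments of output over input, centred on the mode of non-aggregating sequences. Any sequence with under 100 input reads was excluded.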
row,Substance,amyloid nucleation score
1,FTFEFVNHMASVYRSLMYER,-0.356 ± 1.1
2,FTKGNYCSGLLGSSSRWTPF,0.926 ± 0.74
3,FTLMGNSCHRGLV,-0.66 ± 0.85
4,FTNASDYYELVLHCRGAEKE,0.523 ± 0.3
5,FTQKIFQTFFDHAYNWFSRV,0.918 ± 0.46
6,FTRGDICLYLFCELFRPVNC,2.29 ± 0.22
7,FTSAASQFRVMSGQSNSKYP,-1.2 ± 2.4
8,FTSVITLMFNYNTFWKKSSY,1.12 ± 0.27
9,FTVLWCRSMLGC,-0.111 ± 0.4
10,FTVVWGHQVYVMTSPFSSAG,5.76 ± 0.062
11,FVKRF,0.073 ± 0.4
12,FVLHCCRLRGHTSSSHWLGA,0.245 ± 0.43
13,FVLLELVSVVRVLHYDGIWD,0.079 ± 0.51
14,FVLLRIRHRFFWGSCLNPFQ,1.12 ± 0.26
15,FVLQWRNIRVVDLRMRPYPK,0.508 ± 0.28
16,FVMLFRFRVVCRFV,inactive
17,FVSGVFGYRMYDPRRVWLSL,-0.178 ± 0.7
18,FVVRCDYVVLTLDSGDRSYV,3.37 ± 0.071
19,FVVVHRSASGPEIQFLKGGR,-0.684 ± 0.4
20,FVYNTSFLYSVCNNWAKRSP,7.758 ± 0.053
21,FWIDLGMTLGTCRSFLSLRS,0.217 ± 0.6
22,FWIWVCSDLLLD,0.423 ± 0.43

row,Substance,amyloid nucleation score
1,FWLFSGLCNRFNTGYDFLKS,1.12 ± 0.48
2,FWLLS,-0.153 ± 1
3,FWRGDRLVMSFEE,-0.285 ± 0.83
4,FWRMTFQRHEKLSHQ,-0.28 ± 0.38
5,FWSVYKT,0.744 ± 0.27
6,FWVFLTRKLCYSHGRVLALV,-0.708 ± 1.1
7,FYGQRPKMLCPTRAEDLTKA,-0.269 ± 0.88
8,FYIVIDYFRNCAG,0.005 ± 0.38
9,FYPRM,0.781 ± 0.54
10,FYRFDQRNLEDVGGGMYGSS,0.3 ± 0.83
11,FYTAYCGLALRLVTTQPCMS,-0.001 ± 0.49
12,FYVANVACSCAFMLPITNVR,-0.461 ± 0.73
13,GAFAFQKL,0.358 ± 1.1
14,GAFEDEVVLLTHTL,-0.447 ± 1.1
15,GANKTWCYKSSQCVISDGLG,-0.103 ± 0.66
16,GARYNASDRGEASYLIEHCG,-0.531 ± 0.99
17,GARYVLYMLT,-0.85 ± 0.88
18,GATIIKSFLDRNSTTWLSLV,-0.451 ± 0.63
19,GAVICICCIIIGKYC,3.74 ± 0.082
20,GAYNWVF,-0.107 ± 0.55
21,GCDTQLQMGLFMSYIMNTSV,-0.621 ± 1.1
22,GCLFICSMRELYKSASSTMR,0.141 ± 0.48

row,Substance,amyloid nucleation score
1,GCLNDCGSLVWYGVCKSCLP,0.446 ± 0.6
2,GCSVWDCWGLRVRSVGRSDR,0.449 ± 0.34
3,GCVGGWSVEFITLGYWSQRG,1.17 ± 0.88
4,GCYQYWCRSFHVGEIPVP,-0.003 ± 1.1
5,GDCFFQSYDTVFNFASR,2.24 ± 0.2
6,GDFKTRLFSCLDSRLILGRG,-0.485 ± 1.5
7,GDIALS,-0.292 ± 0.41
8,GDNACLLSSIEDALDSVQVL,0.99 ± 0.67
9,GDTYHNYVWRLDACSTLPWY,-0.547 ± 0.53
10,GDVFVYSDDWGDGVNGSGGR,-1.96 ± 2.4
11,GENYLGCLGSFWKTSNTCCP,-0.881 ± 1.4
12,GETRVLHDKVGRKFGLCKDF,0.32 ± 0.41
13,GFAWYDYMLQYIVVLVGLYN,-0.159 ± 1.4
14,GFECSCKYHDFTGSALCNTL,0.613 ± 0.36
15,GFFFVFHYSGTHGLICCYTL,-0.22 ± 0.41
16,GFGMFATTGKVLSMRAFQ,0.025 ± 0.59
17,GFGPTIYSFRSSGQGNGLMP,-0.3 ± 0.27
18,GFGSRRYFRAVLSCPR,0.852 ± 0.93
19,GFLTSSIYRSLAVQLNQSWW,0.078 ± 0.32
20,GFMIICN,-0.405 ± 0.88
21,GFRRGPVSSSV,0.206 ± 0.67
22,GFSKMLLAIVSIQDKGSWDA,2.41 ± 0.17

row,Substance,amyloid nucleation score
1,GFSVLCRSRPQGSTGVQIRV,-0.788 ± 0.86
2,GFVILDSNPLRFNCFWVDAF,0.325 ± 0.29
3,GFYDRYVNAGMECAGPSSQR,5.24 ± 0.079
4,GGALSCVRDF,1.39 ± 0.78
5,GGCRIYLSSRM,-0.583 ± 0.46
6,GGDGVKVVIGLHGWFASGYL,1.24 ± 0.3
7,GGDSQCVLTGFWYCSTWGKG,6.438 ± 0.056
8,GGFWPICYWNLRASEPLQDS,0.173 ± 0.63
9,GGGGNVGGFFMWCSVYSAGV,-0.105 ± 0.96
10,GGKAIIQCLEW,-0.362 ± 1.2
11,GGKVGREQTIW,-0.123 ± 0.89
12,GGLGRYWTTHE,0.436 ± 0.83
13,GGLPGNRSYRGWSSIFACLR,0.021 ± 0.49
14,GGQRWELLFLTRGPGRRWQG,0.2 ± 1.2
15,GGSLVSGSFDKYSYSKYRLW,-0.128 ± 1.4
16,GGTYPPLDISDFNW,-0.616 ± 0.27
17,GHGALSCMMNFHSTGGKVKS,0.667 ± 0.68
18,GHIDAQWPRFRCHMA,0.147 ± 0.32
19,GHNINFGVDCGTVGRFCNTW,-0.54 ± 0.61
20,GHSDFYTTPLKLCRGE,0.634 ± 0.72
